Earlier results on 1 substance are cited in publication PMC4918944.

The data set has as its target SecY (Bacillus subtilis) (UniProt P16336).
Chain of UniProt P16336 (P16336 whole entry): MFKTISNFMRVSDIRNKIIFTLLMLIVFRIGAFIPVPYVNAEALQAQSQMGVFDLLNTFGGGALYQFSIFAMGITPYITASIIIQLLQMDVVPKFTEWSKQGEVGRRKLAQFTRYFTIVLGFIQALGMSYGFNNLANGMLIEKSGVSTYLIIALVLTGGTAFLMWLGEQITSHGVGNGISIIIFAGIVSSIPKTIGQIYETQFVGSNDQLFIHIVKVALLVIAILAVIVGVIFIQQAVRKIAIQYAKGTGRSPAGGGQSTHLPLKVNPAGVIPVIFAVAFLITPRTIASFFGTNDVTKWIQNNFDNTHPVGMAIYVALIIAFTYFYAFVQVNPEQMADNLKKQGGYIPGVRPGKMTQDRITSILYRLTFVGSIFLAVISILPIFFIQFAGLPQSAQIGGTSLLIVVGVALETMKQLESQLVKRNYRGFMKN

Broadly, the Kd is the free concentration of one partner at which half of the binding sites on the other are occupied at equilibrium, for simple one-to-one binding. With SecA (from UniProt P28366), the Kd is 4 nM.
